Test results published in patent US20140030270A1 (Amgen, published 2014).

Experiments:
human PCSK9 (wild-type) = human PCSK9 (wild-type) (human, UniProt Q8NBP7 31-692, biotinylated in the ELISA formats (sites not given); untagged and unlabelled in Biacore/KinExA); assay: cell-based or functional assay
human PCSK9 D374Y mutant = human PCSK9 D374Y mutant (human, UniProt Q8NBP7 31-692, biotinylated in the LDLR binding ELISAs (sites not given)); assay: cell-based or functional assay

EC50, block of WT PCSK9-mediated decrease in LDL uptake in HepG2 cells (BODIPY-LDL) (human PCSK9 (wild-type)): 124 nM
EC50, block of D374Y PCSK9-mediated decrease of LDL uptake in HepG2 cells (BODIPY-LDL) (human PCSK9 D374Y mutant): 35.3 nM
B1: 11F1 anti-PCSK9 antibody (antibody, V domains shown)
VH: EVQLVESGGGLVQPGGSLRLSCAASGFTFSNYWMSWVRQAPGKGLEWVASIKQDGSEKYYVDSVKGRFAISRDNAKNSLFLQMNSLRAEDTAVYYCARDLVLMVYDIDYYYYGMDVWGQGTTVTVSS
VL: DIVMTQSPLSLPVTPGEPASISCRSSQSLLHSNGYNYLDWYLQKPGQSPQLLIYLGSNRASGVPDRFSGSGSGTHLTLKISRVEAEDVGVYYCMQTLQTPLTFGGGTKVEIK
